Source: publication PMC3482342

Columns and labels:
[1] = target: MukE (Escherichia coli) (UniProt P22524); conditions: cited from earlier work
[2] = target: MukE-LLFR (MukE-L38S/L41A/F185S/R186E) (E. coli) (UniProt P22524); assay: AUC

Chain of MukE (P22524 whole entry): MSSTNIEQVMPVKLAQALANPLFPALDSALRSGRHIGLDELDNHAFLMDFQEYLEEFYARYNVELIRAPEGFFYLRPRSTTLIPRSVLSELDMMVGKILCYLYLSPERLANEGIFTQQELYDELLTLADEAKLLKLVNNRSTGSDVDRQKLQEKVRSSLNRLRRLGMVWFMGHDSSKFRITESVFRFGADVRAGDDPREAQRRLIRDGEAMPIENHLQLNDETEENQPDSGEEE

For MukE (from UniProt P22524), the Kd [1] is listed as 18 µM.
For “MukE-LLFR (MukE-L38S/L41A/F185S/R186E) (from UniProt P22524 10-234) (natural protein)”, the Kd [2] was 450 µM.
